Where two headings read alike, the source gives them in different places.

Assay [1] deals with CD33 antigen (human) (UniProt P20138). Kind of assay: competition with 125I-labelled native antibody on HEL 92.1.7 cells; IC50 (reference) / IC50 (sample).
For assay [2] the target is unchanged.
Assay [3] has the same target. The source holds these as a separate data set.
The target is the same in assay [4]. The source holds these as a separate data set.
Assay [5] shares this target. This is another data set of the same source.
For assay [6] the target is unchanged. The source holds these as a separate data set.
Assay [7] has the same target. This is another data set of the same source.
Assay [8] has the same target. The source holds these as a separate data set.
Assay [9] has as its target IL-2 receptor that is found on activated and functionally mature T cells, including abnormally activated leukemia cells (Homo sapiens (Human)) (UniProt P01589).
Assay [10] has as its target polyepithelial mucin (PEM) antigen on cells (human) (UniProt P15941).
Assay [11] has the same target. Kind of assay: competition with 125I-labelled native antibody on A2780DDP cells; IC50 (reference) / IC50 (sample).

Sequence of polyepithelial mucin (PEM) antigen on cells (human) (P15941 24-1255): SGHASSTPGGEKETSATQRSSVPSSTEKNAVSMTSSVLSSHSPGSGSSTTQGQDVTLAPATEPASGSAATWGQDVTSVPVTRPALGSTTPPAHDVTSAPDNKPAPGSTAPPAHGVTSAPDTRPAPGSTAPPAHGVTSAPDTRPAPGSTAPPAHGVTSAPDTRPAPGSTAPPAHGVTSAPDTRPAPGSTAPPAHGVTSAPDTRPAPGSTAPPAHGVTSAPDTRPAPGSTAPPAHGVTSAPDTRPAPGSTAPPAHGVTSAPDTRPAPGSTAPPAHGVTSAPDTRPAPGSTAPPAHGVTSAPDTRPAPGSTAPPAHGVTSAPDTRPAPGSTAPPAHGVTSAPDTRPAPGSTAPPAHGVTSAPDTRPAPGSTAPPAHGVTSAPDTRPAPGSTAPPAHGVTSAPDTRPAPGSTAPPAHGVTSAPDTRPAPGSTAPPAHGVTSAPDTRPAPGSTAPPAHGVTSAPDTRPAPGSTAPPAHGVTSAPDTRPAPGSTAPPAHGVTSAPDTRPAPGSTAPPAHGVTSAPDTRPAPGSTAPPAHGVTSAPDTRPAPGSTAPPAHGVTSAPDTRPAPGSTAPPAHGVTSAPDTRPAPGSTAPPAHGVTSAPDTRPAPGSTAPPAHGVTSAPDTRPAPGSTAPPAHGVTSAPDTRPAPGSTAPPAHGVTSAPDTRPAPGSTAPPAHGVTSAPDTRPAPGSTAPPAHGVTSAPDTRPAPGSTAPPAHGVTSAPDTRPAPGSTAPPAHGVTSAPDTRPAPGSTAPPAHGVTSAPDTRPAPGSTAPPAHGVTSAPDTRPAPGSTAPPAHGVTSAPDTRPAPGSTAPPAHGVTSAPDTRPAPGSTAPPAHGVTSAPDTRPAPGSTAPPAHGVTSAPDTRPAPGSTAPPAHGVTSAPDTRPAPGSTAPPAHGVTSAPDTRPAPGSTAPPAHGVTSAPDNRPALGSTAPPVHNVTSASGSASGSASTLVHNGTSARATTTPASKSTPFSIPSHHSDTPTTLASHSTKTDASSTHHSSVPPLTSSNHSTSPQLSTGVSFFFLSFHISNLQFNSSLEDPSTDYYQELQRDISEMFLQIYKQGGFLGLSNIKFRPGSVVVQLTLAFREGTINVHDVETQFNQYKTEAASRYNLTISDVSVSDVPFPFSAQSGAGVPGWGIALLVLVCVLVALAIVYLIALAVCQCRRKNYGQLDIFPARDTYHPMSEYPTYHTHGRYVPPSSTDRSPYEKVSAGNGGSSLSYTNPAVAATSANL

In the assay with CD33 antigen (human) [1], “Conjugate of 4-formylphenoxyacetic acid (1) condensed with Calicheamicin N-acetyl gamma dimethyl hydrazide and m-P67.6 (antibody)” came in with a Rel. Affinity of 0.77. In the assay with CD33 antigen (human) [2], this molecule came in with an Ex vivo inhibition of colony formation of 90 % inhibition and an In vitro IC50 (3H-thymidine incorporation) of 0.068 ng/mL.

In the assay with CD33 antigen (human) [3], “Conjugate of 4-(2-oxoethoxy)benzenepropanoic acid (5) condensed with Calicheamicin N-acetyl gamma dimethyl hydrazide and m-P67.6 (antibody)” gave an Ex vivo inhibition of colony formation of 71 % inhibition and an In vitro IC50 (3H-thymidine incorporation) of 0.45 ng/mL. Also, the Rel. Affinity with CD33 antigen (human) [1] worked out at 1.11.

In the assay with CD33 antigen (human) [4], “Conjugate of 6-formyl-2-naphthoic acid (4) condensed with Calicheamicin N-acetyl gamma dimethyl hydrazide and m-P67.6 (antibody)” had an In vitro IC50 (3H-thymidine incorporation) of 0.047 ng/mL. Besides, the Rel. Affinity in the assay with CD33 antigen (human) [1] is 0.73.

Regarding “Conjugate of 4-acetylbenzenebutanoic acid (19) condensed with Calicheamicin N-acetyl gamma dimethyl hydrazide and m-P67.6 (antibody)”, in the assay with CD33 antigen (human) [5], the Ex vivo inhibition of colony formation was found to be 99 % inhibition and the In vitro IC50 (3H-thymidine incorporation) is 0.0082 ng/mL. In the assay with CD33 antigen (human) [1], this molecule displayed a Rel. Affinity of 0.42.

For “Conjugate of 4-formyl-3-methoxyphenoxyacetic acid (3) condensed with Calicheamicin N-acetyl gamma dimethyl hydrazide and m-P67.6 (antibody)”, in the assay with CD33 antigen (human) [6], the Ex vivo inhibition of colony formation was found to be 90 % inhibition and the In vitro IC50 (3H-thymidine incorporation) worked out at 0.12 ng/mL. For the same molecule, the Rel. Affinity in the assay with CD33 antigen (human) [1] was 0.76.

“Conjugate of 4-(4-acetylphenoxy)butanoic acid (7) condensed with Calicheamicin N-acetyl gamma dimethyl hydrazide and m-P67.6 (antibody)” returned a Rel. Affinity with CD33 antigen (human) [1] of 0.96. In the assay with CD33 antigen (human) [7], the Ex vivo inhibition of colony formation is 98 % inhibition and the In vitro IC50 (3H-thymidine incorporation) is 0.017 ng/mL.

“Conjugate of 3-(2-oxoethoxy)benzoic acid (6) condensed with Calicheamicin N-acetyl gamma dimethyl hydrazide and m-P67.6 (antibody)” yielded an In vitro IC50 (3H-thymidine incorporation) with CD33 antigen (human) [8] of 0.32 ng/mL. This molecule gave a Rel. Affinity in the assay with CD33 antigen (human) [1] of 1.91.

“Conjugate of 4-(4-acetylphenoxy)butanoic acid (7) condensed with calicheamicin N-acetyl gamma dimethyl hydrazide and anti-Tac (antibody)”: in [9], the Ex vivo IC50 (inhibition of D14 CFU-GM colony growth) was found to be 1 ng/mL and the In vitro IC50 (3H-thymidine incorporation) amounted to 0.004 ng/mL.

B1: Conjugate of 4-formyl-3-methoxyphenoxyacetic acid (3) condensed with Calicheamicin N-acetyl gamma dimethyl hydrazide and m-CT-M-01 (antibody, V domains shown)
VH: QIQLQQSGPELVKPGASVKISCKASGYTFTDYYINWMKQKPGQGLEWIGWIDPGSGNTKYNEKFKGKATLTVDTSSSTAYMQLSSLTSEDTAVYFCAREKTTYYYAMDYWGQGTSVTVSA
VL: DIVMTQAAPSVPVTPGESLSISCRSSKSLLHSNGDTFLYWFLQRPGQSPQLLIYRMSNLASGVPDRFSGSGSGTAFTLRVSRVEAEDVGVYYCMQHLEYPFTFGAGTKLELKR
modifications: drug-linker amide on lysine side chains, sites not stated; drug-linker amide on lysine side chains, sites not stated
B1 yielded an In vitro IC50 (3H-thymidine incorporation) in [10] of 5.6 ng/mL. Further, the Rel. Affinity in assay [11] came out at 0.88.

For the origin of these results see patent US5773001 (American Cyanamid Company, dated 1998).
